Like-named read-outs stand apart in the source and are kept apart here.
Key:
[1] = biological target: human cancer-specific MUC1 peptide; experiment: ELISA binding activity of anti-human MUC1 antibody Fab^5 fragment conjugates (Example 6-1); settings: EC50 value for each of 3 runs; Table 51; read-out: EC50 P10-2
Experimental: (§1) Each anti-human MUC1 antibody Fab^5 fragment conjugate prepared by the method of Example 5 was subjected to ELISA to evaluate the binding activity thereof to human cancer-specific MUC1. In the present test, 20×PBS/Tween 20 Buffer (Thermo Fisher Scientific Inc., 28352) diluted 20-fold with distilled water was used as a wash liquid. In addition, for bovine serum albumin (BSA) used in the present test, 30% Bovine Serum Albumin solution (Sigma-Aldrich, Inc., A9576-50ML) was added in an appropriate proportion for use. A human cancer-specific MUC1 peptide (PTL 1) at 0.5 μmol/L was added to a Nunc MaxiSorp White 384 plate (Nunc, 460372) at 30 μL per well, and the plate was incubated overnight at 4° C. for immobilization. The MUC1 peptide was removed by reverse centrifugation, and then blocking was carried out by adding a PBS/Tween 20 buffer containing 5.0% BSA. Thereafter, the blocking solution was removed by reverse centrifugation, a solution of each anti-human MUC1 antibody Fab^5 fragment conjugate (Ex-No. 104, 108, or 112) described above at about 10000 ng/mL was diluted in 14 steps by 3-fold dilution using a PBS/Tween 20 buffer containing 1.0% BSA, and 30 μL was added per well and incubated at room temperature for 60 minutes. The plate was washed 3 times with a PBS/Tween 20 buffer, and Horseradish Peroxidase-labeled goat anti-human IgK antibody (Southern Biotechnology Associates, Inc.) diluted 10000-fold using a PBS/Tween 20 buffer containing 5.0% BSA was added at 30 μL per well and incubated at room temperature for 30 minutes. The plate was washed 3 times with a PBS/Tween 20 buffer, and ECL Prime Western Blotting DETECTION Reagent (GE Healthcare, RPN2232) as a substrate was added at 30 μL per well. The substrate was incubated at room temperature for 15 minutes, and then a signal value thereof was measured using an Envision counter (PerkinElmer, Inc.).
(§2) The test for each antibody was carried out in duplicate, and the EC50 value was calculated using a 4-parameter logistic curve model.

[2] = biological target: human cancer-specific MUC1 peptide (Homo sapiens, UniProt P15941); experiment: ELISA binding activity of anti-human MUC1 antibody Fab^5 fragment conjugates (Example 6-2)
Experimental: as §1, with “101-113)” for “104, 108, or 112)”
as §2

[3] = biological target: T1, CEACAM5 (R&D Systems, 4128-CM-050) (human, UniProt P06731 35-685); experiment: ELISA on immobilised CEACAM5, 4-parameter fit, duplicate (Example 3-2)
T1 construct: Immobilised on the ELISA plate; also called human CEACAM5
T1 sequence (looked up): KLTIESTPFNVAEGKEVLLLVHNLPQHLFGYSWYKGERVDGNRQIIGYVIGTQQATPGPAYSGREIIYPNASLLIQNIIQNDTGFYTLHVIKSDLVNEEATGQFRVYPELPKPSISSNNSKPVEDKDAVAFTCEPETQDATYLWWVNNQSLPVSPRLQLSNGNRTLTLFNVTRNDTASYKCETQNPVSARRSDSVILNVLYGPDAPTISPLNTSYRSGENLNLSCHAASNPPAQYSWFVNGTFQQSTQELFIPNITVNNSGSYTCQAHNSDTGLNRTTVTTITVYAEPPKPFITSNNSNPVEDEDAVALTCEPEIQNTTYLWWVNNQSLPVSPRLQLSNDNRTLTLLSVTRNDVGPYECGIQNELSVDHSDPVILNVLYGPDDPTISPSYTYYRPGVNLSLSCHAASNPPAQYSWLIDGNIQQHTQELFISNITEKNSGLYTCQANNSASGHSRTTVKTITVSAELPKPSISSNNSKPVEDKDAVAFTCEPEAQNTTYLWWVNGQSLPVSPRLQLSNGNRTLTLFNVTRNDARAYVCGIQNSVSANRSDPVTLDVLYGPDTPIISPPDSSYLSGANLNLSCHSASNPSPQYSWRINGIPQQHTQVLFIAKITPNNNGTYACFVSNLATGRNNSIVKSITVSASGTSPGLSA
Experimental: Each anti-human CEACAM5 antibody Fab fragment conjugate prepared in Example 2 was subjected to ELISA to evaluate the binding activity thereof to CEACAM5. In the present test, a phosphate buffer (Nacalai Tesque Inc., 0.1 mol/L-Phosphate Buffer Solution (pH 7.2)) prepared to 10 mM by diluting 10-fold with distilled water was used as a solvent for an antigen immobilization liquid, and 20×PBS/Tween 20 Buffer (Thermo Fisher Scientific Inc., 28352) diluted 20-fold with distilled water was used as a wash liquid. In addition, for bovine serum albumin (BSA) used in the present test, 30% Bovine Serum Albumin solution (Sigma-Aldrich, Inc., A9576-50ML) was added in an appropriate proportion for use. CEACAM5 (R&D Systems, 4128-CM-050) was diluted with a 10 mM phosphate buffer (pH 7.2) to 0.1 μg/mL, and added to a Nunc MaxiSorp White 384 plate (Nunc, 4603272) at 30 μL per well, and the plate was incubated overnight at 4° C. for immobilization. The CEACAM5 immobilization liquid was removed by reverse centrifugation, and then blocking was carried out by adding a PBS/Tween 20 buffer containing 5.0% BSA. […] The substrate was incubated at room temperature for 15 minutes, and then a signal value thereof was measured using an Envision counter (PerkinElmer, Inc.).
The test for each antibody was carried out in duplicate, and the EC₅₀ value was calculated using a 4-parameter logistic curve model.

[4] = biological target: human cancer-specific MUC1 peptide (PTL 1) (human); experiment: ELISA on immobilised human cancer-specific MUC1 peptide, 4-parameter fit, duplicate (Example 6-1)
[5] = biological target: human cancer-specific MUC1 peptide (PTL 1) (human); experiment: ELISA on immobilised human cancer-specific MUC1 peptide, 4-parameter fit, duplicate (Example 6-2)

Chain of human cancer-specific MUC1 peptide (Homo sapiens, UniProt P15941) (P15941 136-155): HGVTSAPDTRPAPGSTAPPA

B1: P10-2: anti-human MUC1 antibody Fab fragment disclosed in International Publication WO2018/092885; heavy chain fragment SEQ ID NO: 8, light chain SEQ ID NO: 10 (antibody)
heavy: QVQLVQSGAEVKKPGASVKVSCKASGYTFTNYGLSWVRQAPGQGLEWMGENHPGSGIIYHNEKFRGRVTLTADRSTSTAYMELSSLRSEDTAVYYCARSSGTRGFDYWGQGTLVTVSSASTKGPSVFPLAPSSKSTSGGTAALGCLVKDYFPEPVTVSWNSGALTSGVHTFPAVLQSSGLYSLSSVVTVPSSSLGTQTYICNVNHKPSNTKVDKKVEPKSCD
light: DVVMTQTPLSLSVTPGQPASISCRSSQSIVHSNGNTYLEWYLQKPGQSPQLLIYRVSNRFSGVPDRFSGSGSGTDFTLKISRVEAEDVGVYYCFQGSHGPWTFGQGTKLEIKRTVAAPSVFIFPPSDEQLKSGTASVVCLLNNFYPREAKVQWKVDNALQSGNSQESVTEQDSKDSTYSLSSTLTLSKADYEKHKVYACEVTHQGLSSPVTKSFNRGEC
modifications: P10-2 Fab heavy chain fragment; Antibody light chain
Question: For B1, which EC50 [1] is on record?
Answer: The EC50 was 0.06 nM.

Question: What about the EC50 ([2]; EC50 value for each of 3 runs, Table 53, read-out: EC50 P10-2) of the same molecule?
Answer: The EC50 was 0.06 nM.

B2: [Gd/DOTA-NH—CH2-(1,4-Ph)-NH—C(═O)-Met-Ile-NH—(CH2)2—Z1(#N)]p-Fab^5 (conjugate)
heavy: QVQLVQSGAEVKKPGASVKVSCKASGYTFTNYGLSWVRQAPGQGLEWMGENHPGSGIIYHNEKFRGRVTLTADRSTSTAYMELSSLRSEDTAVYYCARSSGTRGFDYWGQGTLVTVSSASTKGPSVFPLAPSSKSTSGGTAALGCLVKDYFPEPVTVSWNSGALTSGVHTFPAVLQSSGLYSLSSVVTVPSSSLGTQTYICNVNHKPSNTKVDKKVEPKSCD
light: DVVMTQTPLSLSVTPGQPASISCRSSQSIVHSNGNTYLEWYLQKPGQSPQLLIYRVSNRFSGVPDRFSGSGSGTDFTLKISRVEAEDVGVYYCFQGSHGPWTFGQGTKLEIKRTVAAPSVFIFPPSDEQLKSGTASVVCLLNNFYPREAKVQWKVDNALQSGNSQESVTEQDSKDSTYSLSSTLTLSKADYEKHKVYACEVTHQGLSSPVTKSFNRGEC
modifications: non-natural residues
Question: B2 was tested. Which EC50 ([2]; each conjugate run in duplicate, Table 54, read-out: EC50) did it give?
Answer: Its EC50 is 0.08 nM.

B3: [Gd/DOTA-NH-CH2-(1,4-Ph)-NH-C(═O)-Met-Ile-NH-(CH2)2-(A-4 and/or A-5)]p-Fab^2 (Fab, V domains shown)
VH: EVQLVESGGGLVQPGGSLRLSCAASGFNIRDTYMHWVRQAPGKGLEWVARIDPANGNSRYVPKFQGRFTISADTSRNTAYLQMNSLRAEDTAVYYCAPFGYYVSDYAMAYWGQGTLVTVSS
VL: DIQLTQSPSSLSASVGDRVTITCRAGESVDIFGVGFLHWYQQKPGKAPKLLIYRASNLESGIPSRFSGSGSRTDFTLTISSLQPEDFATYYCQQTNEDPYTFGQGTKVEIKR
modifications: labeling may sit on this chain; sites not stated; labeling portion (MW 1092) on amino groups of the Fab, sites and chain not stated; 1-4 per Fab by MS
notes: also called Ex-No 66; Conjugate No. 66
Question: For B3, which EC50 [3] is on record?
Answer: Its EC50 is 0.16 nM.

B4: [Gd/DOTA-NH-CH2-(1,4-Ph)-NH-C(═O)-Met-Ile-NH-(CH2)2-(A-3)]p-Fab^2 (Fab, V domains shown)
VH: EVQLVESGGGLVQPGGSLRLSCAASGFNIRDTYMHWVRQAPGKGLEWVARIDPANGNSRYVPKFQGRFTISADTSRNTAYLQMNSLRAEDTAVYYCAPFGYYVSDYAMAYWGQGTLVTVSS
VL: DIQLTQSPSSLSASVGDRVTITCRAGESVDIFGVGFLHWYQQKPGKAPKLLIYRASNLESGIPSRFSGSGSRTDFTLTISSLQPEDFATYYCQQTNEDPYTFGQGTKVEIKR
modifications: labeling may sit on this chain; sites not stated; labeling portion (MW 1187) on amino groups of the Fab, sites and chain not stated; 1-3 per Fab by MS
notes: also called Ex-No 68; Conjugate No. 68
Question: How did the EC50 [3] turn out when B4 was run?
Answer: Its EC50 is 0.31 nM.

B5: [Gd/DOTA-NH-CH2-(1,4-Ph)-NH-C(═O)-Met-Ile-NH-(CH2)2-(A-4 and/or A-5)]p-Fab^5 (Fab, V domains shown)
VH: QVQLVQSGAEVKKPGASVKVSCKASGYTFTNYGLSWVRQAPGQGLEWMGENHPGSGIIYHNEKFRGRVTLTADRSTSTAYMELSSLRSEDTAVYYCARSSGTRGFDYWGQGTLVTVSS
VL: DVVMTQTPLSLSVTPGQPASISCRSSQSIVHSNGNTYLEWYLQKPGQSPQLLIYRVSNRFSGVPDRFSGSGSGTDFTLKISRVEAEDVGVYYCFQGSHGPWTFGQGTKLEIKR
modifications: labeling may sit on this chain; sites not stated; labeling portion (MW 1092) on amino groups of the Fab, sites and chain not stated; 1-3 per Fab by MS; Gln 1 pyroglutamic acid as Fab^5 is defined in paragraph 370
Question: B5 was tested. Which EC50 [4] did it give?
Answer: The EC50 was 0.08 nM.

B6: [Gd/DOTA-NH-CH2-(1,4-Ph)-NH-C(═O)-Met-Ile-NH-(CH2)2-(A-3)]p-Fab^5 (Fab, V domains shown)
VH: QVQLVQSGAEVKKPGASVKVSCKASGYTFTNYGLSWVRQAPGQGLEWMGENHPGSGIIYHNEKFRGRVTLTADRSTSTAYMELSSLRSEDTAVYYCARSSGTRGFDYWGQGTLVTVSS
VL: DVVMTQTPLSLSVTPGQPASISCRSSQSIVHSNGNTYLEWYLQKPGQSPQLLIYRVSNRFSGVPDRFSGSGSGTDFTLKISRVEAEDVGVYYCFQGSHGPWTFGQGTKLEIKR
modifications: labeling may sit on this chain; sites not stated; labeling portion (MW 1187) on amino groups of the Fab, sites and chain not stated; 1-2 per Fab by MS; Gln 1 pyroglutamic acid as Fab^5 is defined in paragraph 370
Question: With B6 as the molecule, how does the EC50 [4] read?
Answer: Its EC50 is 0.15 nM.

B7: Ex-No 108, conjugate of Fab^5 without peptide linker (structure given only as drawing CHEM-US-00165) (Fab, V domains shown)
VH: QVQLVQSGAEVKKPGASVKVSCKASGYTFTNYGLSWVRQAPGQGLEWMGENHPGSGIIYHNEKFRGRVTLTADRSTSTAYMELSSLRSEDTAVYYCARSSGTRGFDYWGQGTLVTVSS
VL: DVVMTQTPLSLSVTPGQPASISCRSSQSIVHSNGNTYLEWYLQKPGQSPQLLIYRVSNRFSGVPDRFSGSGSGTDFTLKISRVEAEDVGVYYCFQGSHGPWTFGQGTKLEIKR
modifications: labeling may sit on this chain; sites not stated; low molecular weight molecule (MW 542) bound to the Fab, sites and chain not stated; 1-3 per Fab by MS; Gln 1 pyroglutamic acid as Fab^5 is defined in paragraph 370
Question: How did the EC50 [5] turn out when B7 was run?
Answer: The EC50 was 0.07 nM.

Question: What about the EC50 [4] of the same molecule?
Answer: Its EC50 is 0.07 nM.

Source: US20220096653A1, “CONJUGATE COMPRISING LIGAND AND CEACAM5 ANTIBODY FAB FRAGMENT” (ASTELLAS PHARMA INC., priority 2019, published 2022)
